Data as given in PMC3431625.
pKd: −log10 of the molar value.

Target: Recombinant α2β1 integrin (UniProt P17301)
Experiment: ELISA

Recombinant α2β1 integrin, sequence (P17301 30-1181, chain 1 of 2): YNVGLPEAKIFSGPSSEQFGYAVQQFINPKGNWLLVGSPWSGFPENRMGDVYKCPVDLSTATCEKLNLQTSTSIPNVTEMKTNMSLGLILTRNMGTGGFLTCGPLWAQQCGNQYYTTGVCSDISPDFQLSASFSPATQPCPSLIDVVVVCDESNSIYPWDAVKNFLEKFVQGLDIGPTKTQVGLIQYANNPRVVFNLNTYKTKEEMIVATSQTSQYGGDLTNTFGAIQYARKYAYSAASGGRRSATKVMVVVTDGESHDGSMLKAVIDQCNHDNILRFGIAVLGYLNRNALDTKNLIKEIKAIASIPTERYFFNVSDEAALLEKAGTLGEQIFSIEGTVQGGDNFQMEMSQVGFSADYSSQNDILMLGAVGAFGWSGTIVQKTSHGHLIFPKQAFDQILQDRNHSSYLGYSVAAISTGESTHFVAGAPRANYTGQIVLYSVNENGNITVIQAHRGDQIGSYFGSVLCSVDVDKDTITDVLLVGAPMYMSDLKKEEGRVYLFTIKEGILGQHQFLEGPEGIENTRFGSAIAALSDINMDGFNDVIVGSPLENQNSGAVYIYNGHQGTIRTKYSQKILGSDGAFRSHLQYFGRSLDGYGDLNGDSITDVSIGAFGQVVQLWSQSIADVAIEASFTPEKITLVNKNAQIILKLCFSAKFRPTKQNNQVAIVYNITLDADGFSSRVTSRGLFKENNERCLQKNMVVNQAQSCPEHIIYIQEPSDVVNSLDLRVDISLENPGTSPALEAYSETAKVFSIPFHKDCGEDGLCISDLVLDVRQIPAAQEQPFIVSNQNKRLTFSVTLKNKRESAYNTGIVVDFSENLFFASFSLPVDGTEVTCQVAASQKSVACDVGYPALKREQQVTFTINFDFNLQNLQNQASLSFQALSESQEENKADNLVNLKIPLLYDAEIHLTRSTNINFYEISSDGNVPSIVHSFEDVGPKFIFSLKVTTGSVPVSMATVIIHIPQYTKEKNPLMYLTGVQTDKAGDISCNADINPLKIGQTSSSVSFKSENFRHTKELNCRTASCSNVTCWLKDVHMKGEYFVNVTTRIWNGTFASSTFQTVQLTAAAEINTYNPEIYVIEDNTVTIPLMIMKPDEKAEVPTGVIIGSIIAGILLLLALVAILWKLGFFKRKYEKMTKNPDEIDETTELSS
Recombinant α2β1 integrin, sequence (P05556 21-798, chain 2 of 2, further chain): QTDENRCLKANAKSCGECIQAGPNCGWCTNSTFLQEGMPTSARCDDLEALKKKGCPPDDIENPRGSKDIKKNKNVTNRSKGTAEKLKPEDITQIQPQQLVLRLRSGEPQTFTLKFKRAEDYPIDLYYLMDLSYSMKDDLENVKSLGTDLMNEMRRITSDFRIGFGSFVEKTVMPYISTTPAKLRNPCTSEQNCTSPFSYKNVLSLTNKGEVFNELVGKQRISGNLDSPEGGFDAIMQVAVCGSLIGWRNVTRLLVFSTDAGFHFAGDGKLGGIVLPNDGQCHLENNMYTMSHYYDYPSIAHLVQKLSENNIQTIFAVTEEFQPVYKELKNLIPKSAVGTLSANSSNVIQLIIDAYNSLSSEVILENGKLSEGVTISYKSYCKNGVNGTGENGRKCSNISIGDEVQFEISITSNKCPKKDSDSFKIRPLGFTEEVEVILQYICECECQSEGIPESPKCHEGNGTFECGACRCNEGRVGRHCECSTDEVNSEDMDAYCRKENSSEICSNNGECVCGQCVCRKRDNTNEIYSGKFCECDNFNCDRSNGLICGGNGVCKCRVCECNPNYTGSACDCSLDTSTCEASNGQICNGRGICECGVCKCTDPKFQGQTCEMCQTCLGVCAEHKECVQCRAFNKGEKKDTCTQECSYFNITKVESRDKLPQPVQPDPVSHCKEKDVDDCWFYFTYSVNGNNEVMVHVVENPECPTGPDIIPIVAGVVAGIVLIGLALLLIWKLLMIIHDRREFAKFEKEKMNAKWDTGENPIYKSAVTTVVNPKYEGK

Biotinylated collagen type I (from UniProt P02453;P02465) (natural protein)
pKd: 8.82
